Patent US20050106100A1, “Compounds containing matrix metalloproteinase substrates and methods of their use” (priority 2003, published 2005)

Experiments:
[1] = tested on: CC(=O)N1CCC[C@H]1C(=O)N[C@@H](CC(C)C)C(=O)NCC(=O)N[C@@H](CCc1ccccc1)C(=O)N[C@@H](Cc1ccc(O)cc1)C(=O)N[C@@H](CC(C)C)C(=O)NNC(=O)c1ccc(N/N=C/c2ccccc2S(=O)(=O)ON)nc1; test: Kinetic measurements of substrate hydrolysis by active MMP-9 (radio HPLC assay); format: biochemical, human; conditions: other: active MMP-9 final concentration 2 nM, 37° C., 60 minutes, radiolabeled test substrate, pH 7.5
Method: (§1) Purified MMP-2 (10 μg) or MMP-9 (10 μg) were reconstituted in 100 μL of TCN buffer. […] Pro-MMP-2 was activated by incubation with 2 nM APMA for 2 hours at 37° C. At the end of incubation 100 μl of 100% glycerol was added to active MMP-2 and active MMP-9 (final concentration 50% glycerol). Active MMP-2 and active MMP-9 were aliquoted and stored at −20° C.
(§2) The level of active protease was always quantified by active site titration studies prior to kinetic studies. The active site of MMP-9 and MMP-2 was titrated using the GM6001 dissolved in 100% DMSO at a stock concentration of 2.5 mM. Dilutions (1:2) of GM6001 were prepared in TCN buffer to give a final concentration of 5 nM to 0.04 nM GM6001 in the active site titration assay. Activated MMP-2 or activated MMP-9 (2 nM) was preincubated with increasing concentrations of GM60001 at 37° C. for 15 minutes in 96 well black microtiter plates. […] Plates were read on fluorescence spectrophotometer at excitation wavelength of 320 nm and emission wavelength of 395 nm. The concentration of the active enzyme was determined using the Morrison equation and Kaleidagraph software (Reading, Pa.).
(§3) The kinetic parameters of substrate hydrolysis were determined using a radio HPLC assay. The turnover of different substrates by active MMP-2 and active MMP-9 was determined using this assay. […] The radiolabel was detected by a IN/US beta ram detector. […]

[2] = tested on: CC(=O)N1CCC[C@H]1C(=O)N[C@@H](CCCN)C(=O)NCC(=O)N[C@@H](CCc1ccccc1)C(=O)N[C@@H](CC(C)C)C(=O)NNC(=O)c1ccc(N/N=C/c2ccccc2S(=O)(=O)O)nc1; test: as above; format: biochemical, human; conditions: other: active MMP-9 final concentration 2 nM, 37° C., 60 minutes, radiolabeled test substrate, pH 7.5
Method: as §1, §2, §3

Sequence of MMP-9 (Homo sapiens) (chain, as listed by the source): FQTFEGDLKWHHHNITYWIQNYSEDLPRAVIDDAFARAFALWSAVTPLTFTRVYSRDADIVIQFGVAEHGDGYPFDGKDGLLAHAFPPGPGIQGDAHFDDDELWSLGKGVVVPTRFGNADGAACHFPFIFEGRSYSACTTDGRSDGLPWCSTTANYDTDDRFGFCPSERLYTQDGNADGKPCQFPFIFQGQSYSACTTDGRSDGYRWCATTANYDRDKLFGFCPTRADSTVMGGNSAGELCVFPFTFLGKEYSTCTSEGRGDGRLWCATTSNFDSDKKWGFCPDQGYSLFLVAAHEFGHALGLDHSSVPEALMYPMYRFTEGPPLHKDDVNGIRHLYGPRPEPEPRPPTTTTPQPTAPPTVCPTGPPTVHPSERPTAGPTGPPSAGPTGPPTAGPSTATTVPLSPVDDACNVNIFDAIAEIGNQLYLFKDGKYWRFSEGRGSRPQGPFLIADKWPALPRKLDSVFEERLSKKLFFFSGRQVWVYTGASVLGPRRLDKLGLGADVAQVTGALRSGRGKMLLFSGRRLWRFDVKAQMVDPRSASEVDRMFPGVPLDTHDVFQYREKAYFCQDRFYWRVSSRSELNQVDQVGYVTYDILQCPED

MMP-9 (Homo sapiens)
kcat/Km [1]: > 100000 M⁻¹ s⁻¹ | kcat/Km [2]: 4450 M⁻¹ s⁻¹
